Where two headings read alike, the source gives them in different places.
B1: CAP2 monomer (endogenous, human hippocampus) (natural protein, human (endogenous in hippocampus), UniProt P40123 1-477, looked up)
chain: MANMQGLVERLERAVSRLESLSAESHRPPGNCGEVNGVIAGVAPSVEAFDKLMDSMVAEFLKNSRILAGDVETHAEMVHSAFQAQRAFLLMASQYQQPHENDVAALLKPISEKIQEIQTFRERNRGSNMFNHLSAVSESIPALGWIAVSPKPGPYVKEMNDAATFYTNRVLKDYKHSDLRHVDWVKSYLNIWSELQAYIKEHHTTGLTWSKTGPVASTVSAFSVLSSGPGLPPPPPPLPPPGPPPLFENEGKKEESSPSRSALFAQLNQGEAITKGLRHVTDDQKTYKNPSLRAQGGQTQSPTKSHTPSPTSPKSYPSQKHAPVLELEGKKWRVEYQEDRNDLVISETELKQVAYIFKCEKSTIQIKGKVNSIIIDNCKKLGLVFDNVVGIVEVINSQDIQIQVMGRVPTISINKTEGCHIYLSEDALDCEIVSAKSSEMNILIPQDGDYREFPIPEQFKTAWDGSKLITEPAEIMA
B2: CAP2 (endogenous, rat hippocampus and primary hippocampal neurons) (natural protein, UniProt P52481 1-477, looked up)
chain: MADMLGLMQRLEFAVSRLERLSSGLHEPPGGCGEVNSLSRGIVAPSVEAFDKLINSMVAEFLKNSRVLAGDVETHAEMVHGAFQAQRAFLLMVSQHQQPQENEVAVLLKPISEKIQEIQTFRERNRGSDMFNHLSAVSESIAALGWIAVSPKPGPYVKEMNDAATFYTNRVLRDYKHSDLRHVDWVRSYLKIWSELQAYIKEHHTTGLTWSKTGPVASTASAFSILSSGPGLPPPPPPPPPPGPPPPFENEGGKEEPSPSRSALFAQLNQGEAITKGLRHVTDDKKIYKNPSLRAQGQIRSPTKTRTPSPTSSKSNSPQKHAPVLELEGKKWRVEYQEDRNDLVISETELKQVAYIFKCDKSTLQIKGKVNSITVDNCKKFGLVFDHVVGIVEVINSKDIQIQVMGRVPTISINKTEGCHLYLSKDALDCEIVSAKSSEMNVLVPQGDDYREFPIPEQFKTIWDGSKLITEPAEIMA
B3: CAP2 (endogenous, mouse hippocampus) (natural protein, mouse (endogenous in hippocampus), UniProt Q9CYT6 1-476, looked up)
chain: MTDMAGLMERLERAVIRLEQLSAGLDGPPRGCGEVNGVNGGVAPSVEAFDKLINSMVAEFLKNSRVLAGDVETHAEMVHGAFQAQRAFLLMVSQYQQPQENEVAVLLKPISEKIQEIQTFRERNRGSNMFNHLSAVSESIAALGWIAVSPKPGPYVKEMNDAATFYTNRVLKDYKHSDLRHVDWVRSYLNIWSELQAYIREHHTTGLTWSKTGPVASTASAFSILSSGPGLPPPPPPPPPPGPPPPFENEDKKEEPSPSRSALFAQLNQGEAITKGLRHVTDDKKTYKNPSLRAQGQIRSPTKTHTPSPTSPKSNSPQKHTPVLELEGKKWRVEYQEDRNDLVISETELKQVAYIFKCDKSTLQIKGKVNSITVDNCKKFGLVFDHVVGIVEVINSKDIQIQVMGRVPTISINKTEGCHLYLSEDALDCEIVSAKSSEMNVLVPQDDDYREFPIPEQFKTIWDGSKLVTEPAEIMA
B4: Myc-CAP2 (natural protein, UniProt Q9CYT6 1-476, looked up)
chain: B3 chain
B5: Streptag-CAP2 (natural protein, UniProt Q9CYT6 1-476, looked up)
chain: B3 chain

Columns and labels:
Experiment in all cases: non-reducing SDS-PAGE with Western blot
[1] = target: the molecule itself
[2] = target: the molecule itself; remark: listed apart in the source
[3] = target: the molecule itself; remark: listed apart in the source

Protein	stoichiometry N [1]	also measured
B1	2	
B2	2	
B3	2	
B4		stoichiometry N [2]: 2
B5		stoichiometry N [3]: 2

From article doi:10.1101/789552 (bioRxiv, 2019)
